Assay results published in US20250163127A1.

B1: variant CD80 A12V/S15F/Y31H/M38L/T41G/M43L/D90N/T130A/P137L/N149D/N152T (Fc fusion)
chain: VIHVTKEVKEVVTLFCGHNVSVEELAQTRIHWQKEKKLVLGMLSGDMNIWPEYKNRTIFDITNNLSIVILALRPSDEGTYECVVLKYEKNAFKREHLAEVTLSVKADFPTPSISDFEIPTSNIRRIICSASGGFPELHLSWLENGEELDAITTTVSQDPETELYAVSSKLDFNMTTNHSFMCLIKYGHLRVNQTFNWNTTKQEHFPDN
B2: variant CD80 K37E/F59S/L70Q/A91G/T120S/T130A (Fc fusion)
chain: VIHVTKEVKEVATLSCGHNVSVEELAQTRIYWQKEKEMVLTMMSGDMNIWPEYKNRTISDITNNLSIVIQALRPSDEGTYECVVLKYEKDGFKREHLAEVTLSVKADFPTPSISDFEIPSSNIRRIICSASGGFPEPHLSWLENGEELNAINTTVSQDPETELYAVSSKLDFNMTTNHSFMCLIKYGHLRVNQTFNWNTTKQEHFPDN
B3: variant CD80 V22A/L70Q/S121P (Fc fusion)
chain: VIHVTKEVKEVATLSCGHNVSAEELAQTRIYWQKEKKMVLTMMSGDMNIWPEYKNRTIFDITNNLSIVIQALRPSDEGTYECVVLKYEKDAFKREHLAEVTLSVKADFPTPSISDFEIPTPNIRRIICSTSGGFPEPHLSWLENGEELNAINTTVSQDPETELYAVSSKLDFNMTTNHSFMCLIKYGHLRVNQTFNWNTTKQEHFPDN
B4: variant CD80 I67F/L70R/E88G/A91G/I118V/T120S/T130A (Fc fusion)
chain: VIHVTKEVKEVATLSCGHNVSVEELAQTRIYWQKEKKMVLTMMSGDMNIWPEYKNRTIFDITNNLSFVIRALRPSDEGTYECVVLKYGKDGFKREHLAEVTLSVKADFPTPSISDFEVPSSNIRRIICSASGGFPEPHLSWLENGEELNAINTTVSQDPETELYAVSSKLDFNMTTNHSFMCLIKYGHLRVNQTFNWNTTKQEHFPDN
B5: variant CD80 L70Q/A91G/T110A/I118V/T120S/T130A (Fc fusion)
chain: VIHVTKEVKEVATLSCGHNVSVEELAQTRIYWQKEKKMVLTMMSGDMNIWPEYKNRTIFDITNNLSIVIQALRPSDEGTYECVVLKYEKDGFKREHLAEVTLSVKADFPAPSISDFEVPSSNIRRIICSASGGFPEPHLSWLENGEELNAINTTVSQDPETELYAVSSKLDFNMTTNHSFMCLIKYGHLRVNQTFNWNTTKQEHFPDN
B6: variant CD80 K54M/L70Q/A91G/Y164H (Fc fusion)
chain: VIHVTKEVKEVATLSCGHNVSVEELAQTRIYWQKEKKMVLTMMSGDMNIWPEYMNRTIFDITNNLSIVIQALRPSDEGTYECVVLKYEKDGFKREHLAEVTLSVKADFPTPSISDFEIPTSNIRRIICSTSGGFPEPHLSWLENGEELNAINTTVSQDPETELHAVSSKLDFNMTTNHSFMCLIKYGHLRVNQTFNWNTTKQEHFPDN
B7: variant CD80 A91G/L102S (Fc fusion)
chain: VIHVTKEVKEVATLSCGHNVSVEELAQTRIYWQKEKKMVLTMMSGDMNIWPEYKNRTIFDITNNLSIVILALRPSDEGTYECVVLKYEKDGFKREHLAEVTSSVKADFPTPSISDFEIPTSNIRRIICSTSGGFPEPHLSWLENGEELNAINTTVSQDPETELYAVSSKLDFNMTTNHSFMCLIKYGHLRVNQTFNWNTTKQEHFPDN

Experiments:
[1] = target: CD28 (human) (UniProt P10747); test: flow cytometry, cells expressing CD28
[2] = target: PD-L1 (human); test: flow cytometry, cells expressing PD-L1
[3] = target: CTLA-4 (human); test: flow cytometry, cells expressing CTLA-4
CTLA-4 (human), sequence (chain, as listed by the source): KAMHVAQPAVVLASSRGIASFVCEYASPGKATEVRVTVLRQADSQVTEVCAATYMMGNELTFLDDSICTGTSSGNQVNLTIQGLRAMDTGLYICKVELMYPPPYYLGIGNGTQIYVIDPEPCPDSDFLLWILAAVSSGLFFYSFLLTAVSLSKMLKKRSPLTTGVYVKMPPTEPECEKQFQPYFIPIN

PD-L1 (human), sequence (chain, as listed by the source): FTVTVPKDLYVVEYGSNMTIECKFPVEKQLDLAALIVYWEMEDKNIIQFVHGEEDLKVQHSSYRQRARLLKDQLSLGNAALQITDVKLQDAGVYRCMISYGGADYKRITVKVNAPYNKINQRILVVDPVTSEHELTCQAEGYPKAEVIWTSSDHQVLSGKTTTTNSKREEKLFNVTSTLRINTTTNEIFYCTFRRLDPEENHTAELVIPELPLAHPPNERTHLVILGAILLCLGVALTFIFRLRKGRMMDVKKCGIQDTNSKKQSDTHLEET

| Binder | MFI [1] [MFI] | parental ratio [1] | MFI [2] [MFI] | parental ratio [2] | MFI [3] [MFI] | parental ratio [3] |
| --- | --- | --- | --- | --- | --- | --- |
| B1 | 6 | 0.06 | 5 | 0.08 | 6 | 0.03 |
| B2 | 20 | 0.21 | 6 | 0.08 | 74 | 0.36 |
| B3 | 5 | 0.06 | 5 | 0.07 | 7 | 0.04 |
| B4 | 5 | 0.05 | 6 | 0.08 | 6 | 0.03 |
| B5 | 8 | 0.09 | 5 | 0.07 | 14 | 0.07 |
| B6 | 68 | 0.71 | 5 | 0.08 | 131 | 0.63 |
| B7 | 6 | 0.06 | 5 | 0.08 | 6 | 0.03 |
